Measured values published in patent US20250277023A1 (published 2025).
Residue numbers refer to the chain shown, from its start. Names may count otherwise.

B1: R1124: PD-L1_VH_IL21R/TIGIT_VL_IL21/TIGIT_VH/PD-L1-VL (bispecific antibody)
chain 1: not shown
chain 2: not shown
heavy: QVQLVQSGAEVKKPGSSVKVSCKASGYSFTSYWMNWVRQAPGQGLEWIGMIRPSDSETRLNQMFKDRVTITVDKSTSTAYMELSSLRSEDTAVYYCAGIHDYGHGAYWGQGTLVTVSSASTKGPSVFPLAPSSKSTSGGTAALGCLVKDYFPEPVTVSWNSGALTSGVHTFPAVLQSSGLYSLSSVVTVPSSSLGTQTYICNVNHKPSNTKVDKRVEPKSCDKTHTCPPCPAPELLGGPSVFLFPPKPKDTLMISRTPEVTCVVVDVSHEDPEVKFNWYVDGVEVHNAKTKPREEQYNSTYRVVSVLTVLHQDWLNGKEYKCKVSNKALPAPIEKTISKAKGQPREPQVYTLPPSREEMTKNQVSLWCLVKGFYPSDIAVEWESNGQPENNYDTTPPVLDSDGSFFLYSDLTVDKSRWQQGNVFSCSVMHEALHNHYTQKSLSLSPGK
light: EIVLTQSPDFQSVTPKEKVTITCSVSSSISSSNLHWYQQKPDQSPKLLIYGTSNLASGVPSRFSGSGSGTDFTLTINSLEAEDAATYYCQQWSSYPLTFGQGTKLEIKRTVAAPSVFIFPPSDEQLKSGTASVVCLLNNFYPREAKVQWKVDNALQSGNSQESVTEQDSKDSTYSLSSTLTLSKADYEKHKVYACEVTHQGLSSPVTKSFNRGEC
B2: R1120: TIGIT_VH_IL18R1_D1D2D3/TIGIT_VL_IL18/PD-L1-Fab (bispecific antibody)
chain 1: QVQLVQSGAEVKKPGSSVKVSCKASGYSFTSYWMNWVRQAPGQGLEWIGMIRPSDSETRLNQMFKDRVTITVDKSTSTAYMELSSLRSEDTAVYYCAGIHDYGHGAYWGQGTLVTVSSGGGGSGGGGSGGGGSGGGGSGCTSRPHITVVEGEPFYLKHCSCSLAHEIETTTKSWYKSSGSQEHVELNPRSSSRIALHDCVLEFWPVELNDTGSYFFQMKNYTQKWKLNVIRRNKHSCFTERQVTSKIVEVKKFFQITCENSYYQTLVNSTSLYKNCKKLLLENNKNPTIKKNAEFEDQGYYSCVHFLHHNGKLFNITKTFNITIVEDRSNIVPVLLGPKLNHVAVELGKNVRLNCSALLNEEDVIYWMFGEENGSDPNIHEEKEMRIMTPEGKWHASKVLRIENIGESNLNVLYNCTVASTGGTDTKSFIEPKSSDKTHTCPPCPAPELLGGPSVFLFPPKPKDTLMISRTPEVTCVVVDVSHEDPEVKFNWYVDGVEVHNAKTKPREEQYNSTYRVVSVLTVLHQDWLNGKEYKCKVSNKALPAPIEKTISKAKGQPREPQVYTLPPSREEMTKNQVSLTCRVKGFYPSDIAVEWESNGQPENNYKTTPPVLKSDGSFFLASKLTVDKSRWQQGNVFSCSVMHEALHNHYTQKSLSLSPGK
chain 2: not shown
heavy: EVQLQESGPGLVKPSETLSLTCAVYGDSITSGYWNWIRKPPGKGLEYMGYISYTGSTYQNPSLKSRITFSRDTSKNQYYLKLSSVTAADTATYYCARSRAWIRTYFDYWGQGTLVTVSSASTKGPSVFPLAPSSKSTSGGTAALGCLVKDYFPEPVTVSWNSGALTSGVHTFPAVLQSSGLYSLSSVVTVPSSSLGTQTYICNVNHKPSNTKVDKRVEPKSCDKTHTCPPCPAPELLGGPSVFLFPPKPKDTLMISRTPEVTCVVVDVSHEDPEVKFNWYVDGVEVHNAKTKPREEQYNSTYRVVSVLTVLHQDWLNGKEYKCKVSNKALPAPIEKTISKAKGQPREPQVYTLPPSREEMTKNQVSLWCLVKGFYPSDIAVEWESNGQPENNYDTTPPVLDSDGSFFLYSDLTVDKSRWQQGNVFSCSVMHEALHNHYTQKSLSLSPGK
light: B1 light
B3: R1116: TIGIT_VH_IL2/TIGIT_VL_IL2RA/PD-L1-Fab (bispecific antibody)
chain 1: not shown
chain 2: DIQMTQSPSSLSASVGDRVTITCRASENIYSNLAWYQQKPGKSPKLLVYAASHLPDGVPSRFSGSGSGTDYSLTISSLQPEDFATYYCQHFWGTPRTFGQGTKLEIKGGGGSGGGGSGGGGSGGGGSGELCDDDPPEIPHATFKAMAYKEGTMLNCECKRGFRRIKSGSLYMLCTGNSSHSSWDNQCQCTSSATRNTTKQVTPQPEEQKERKTTEMQSPMQPVDQASLPGHCREPPPWENEATERIYHFVVGQMVYYQCVQGYRALHRGPAESVCKMTHGKTRWTQPQLICTG
heavy: B2 heavy
light: B1 light
B4: R1119: TIGIT_VH_IL18R1_D1D2/TIGIT_VL_IL18/PD-L1-Fab (bispecific antibody)
chain 1: QVQLVQSGAEVKKPGSSVKVSCKASGYSFTSYWMNWVRQAPGQGLEWIGMIRPSDSETRLNQMFKDRVTITVDKSTSTAYMELSSLRSEDTAVYYCAGIHDYGHGAYWGQGTLVTVSSGGGGSGGGGSGGGGSGGGGSGCTSRPHITVVEGEPFYLKHCSCSLAHEIETTTKSWYKSSGSQEHVELNPRSSSRIALHDCVLEFWPVELNDTGSYFFQMKNYTQKWKLNVIRRNKHSCFTERQVTSKIVEVKKFFQITCENSYYQTLVNSTSLYKNCKKLLLENNKNPTIKKNAEFEDQGYYSCVHFLHHNGKLFNITKTFNITIVEDRSNIVEPKSSDKTHTCPPCPAPELLGGPSVFLFPPKPKDTLMISRTPEVTCVVVDVSHEDPEVKFNWYVDGVEVHNAKTKPREEQYNSTYRVVSVLTVLHQDWLNGKEYKCKVSNKALPAPIEKTISKAKGQPREPQVYTLPPSREEMTKNQVSLTCRVKGFYPSDIAVEWESNGQPENNYKTTPPVLKSDGSFFLASKLTVDKSRWQQGNVFSCSVMHEALHNHYTQKSLSLSPGK
chain 2: not shown
heavy: B2 heavy
light: B1 light
B5: R0919 (PD-L1 monoclonal antibody) (antibody, V domains shown)
VH: EVQLQESGPGLVKPSETLSLTCAVYGDSITSGYWNWIRKPPGKGLEYMGYISYTGSTYQNPSLKSRITFSRDTSKNQYYLKLSSVTAADTATYYCARSRAWIRTYFDYWGQGTLVTVSS
VL: EIVLTQSPDFQSVTPKEKVTITCSVSSSISSSNLHWYQQKPDQSPKLLIYGTSNLASGVPSRFSGSGSGTDFTLTINSLEAEDAATYYCQQWSSYPLTFGQGTKLEIK
B6: R1082: TIGIT_VH (W108C)_IL15RA/TIGIT_VL(S43C)_IL15/PD-L1-Fab (bispecific antibody)
chain 1: QVQLVQSGAEVKKPGSSVKVSCKASGYSFTSYWMNWVRQAPGQGLEWIGMIRPSDSETRLNQMFKDRVTITVDKSTSTAYMELSSLRSEDTAVYYCAGIHDYGHGAYCGQGTLVTVSSGGGGSGGGGSGGGGSGGGGSGITCPPPMSVEHADIWVKSYSLYSRERYICNSGFKRKAGTSSLTECVLNKATNVAHWTTPSLKCIRDPALVHQRPAPPSTVTTAGVTPQPESLSPSGKEPAASSPSSNNTAATTAAIVPGSQLMPSKSPSTGTTEISSHESSHGTPSQTTAKNWELTASASHQPPGVYPQGHSDTTEPKSSDKTHTCPPCPAPELLGGPSVFLFPPKPKDTLMISRTPEVTCVVVDVSHEDPEVKFNWYVDGVEVHNAKTKPREEQYNSTYRVVSVLTVLHQDWLNGKEYKCKVSNKALPAPIEKTISKAKGQPREPQVYTLPPSREEMTKNQVSLTCRVKGFYPSDIAVEWESNGQPENNYKTTPPVLKSDGSFFLASKLTVDKSRWQQGNVFSCSVMHEALHNHYTQKSLSLSPGK
chain 2: DIQMTQSPSSLSASVGDRVTITCRASENIYSNLAWYQQKPGKCPKLLVYAASHLPDGVPSRFSGSGSGTDYSLTISSLQPEDFATYYCQHFWGTPRTFGQGTKLEIKGGGGSGGGGSGGGGSGGGGSGNWVNVISDLKKIEDLIQSMHIDATLYTESDVHPSCKVTAMKCFLLELQVISLESGDASIHNTVQDLIILANNSLSSNGNVTESGCKECEELEEKNIKEFLQSFVHIVQMFINTS
heavy: B2 heavy with E1Q, M48I, F69M, T92V
light: DIQMTQSPSSLSASVGDRVTITCSVSSSISSSNLHWYQQKPGKAPKPWIYGTSNLASGVPSRFSGSGSGTDYTLTISSLQPEDFATYYCQQWSSYPLTFGQGTKLEIKRTVAAPSVFIFPPSDEQLKSGTASVVCLLNNFYPREAKVQWKVDNALQSGNSQESVTEQDSKDSTYSLSSTLTLSKADYEKHKVYACEVTHQGLSSPVTKSFNRGEC
B7: R1083: TIGIT_VH (L45C)_IL15RA/TIGIT_VL(F98C)_IL15/PD-L1-Fab (bispecific antibody)
chain 1: B6 chain 1 with L45C, C108W
chain 2: B6 chain 2 with C43S, F98C
heavy: B2 heavy with E1Q, M48I, F69M, T92V
light: B6 light

Molecular target: T1, PD-L1 (on CHO-PD-L1 cells) (UniProt Q9NZQ7 19-290)
T1 sequence (Q9NZQ7 19-290): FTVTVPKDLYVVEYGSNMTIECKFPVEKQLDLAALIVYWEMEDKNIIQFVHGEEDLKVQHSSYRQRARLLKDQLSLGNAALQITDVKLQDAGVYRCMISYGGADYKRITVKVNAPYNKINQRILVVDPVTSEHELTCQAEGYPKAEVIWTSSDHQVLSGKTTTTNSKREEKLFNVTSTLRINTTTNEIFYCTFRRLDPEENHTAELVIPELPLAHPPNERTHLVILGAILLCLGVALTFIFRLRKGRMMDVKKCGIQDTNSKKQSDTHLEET
Experiment: FACS binding; Fig. 22

Point of comparison: B5, EC50 3.38 nM. Against it:
- B1 — 4.1-fold higher, 13.7 nM
- B2 — within 1.5-fold, 2.99 nM
- B3 — within 1.5-fold, 4.15 nM
- B4 — within 1.5-fold, 2.95 nM

Molecular target: T1, PD-L1 (on CHO-PD-L1 cells)
Experiment: FACS binding; Fig. 24

Point of comparison: B6, EC50 2.78 nM. Against it:
- B7 — within 1.5-fold, 2.29 nM
